# Measurements reported in article PMC12095920.
# Legend:
# [1] = biological target: tau^4R construct (four microtubule-binding repeat domains of human tau) (human) (UniProt P10636)
# [2] = biological target: tau^4R construct (four microtubule-binding repeat domains of human tau) (human), P10636
# Sequence of tau^4R construct (four microtubule-binding repeat domains of human tau) (human), P10636 (P10636 561-689): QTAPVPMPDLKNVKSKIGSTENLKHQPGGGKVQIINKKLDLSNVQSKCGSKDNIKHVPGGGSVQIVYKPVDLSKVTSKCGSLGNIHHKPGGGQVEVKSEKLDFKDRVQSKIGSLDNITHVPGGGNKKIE
"ThT fluorescence after 23 h in the presence of apiCCT3, relative to tau^4R alone (not shown) [1]","ThT fluorescence after 23 h in the presence of apiCCT7, relative to tau^4R alone [2]",Molecule
2.5%,,apical domain of human CCT3 (from UniProt P49368 223-383) (domain or fragment)
,30%,"apical domain of human CCT7, Q99832 207-376 (domain or fragment) DSQLVAGVAFKKTFSYAGFEMQPKKYHNPKIALLNVELELKAEKDNAEIRVHTVEDYQAIVDAEWNILYDKLEKIHHSGAKVVLSKLPIGDVATQYFADRDMFCAGRVPEEDLKRTMMACGGSIQTSVNALSADVLGRCQVFEETQIGGERYNFFTGCPKAKTCTFILRG"
